Laboratory results from patent US20150246947A1 (BAXALTA, published 2015).
“And” between values parts separate entries of the source, which are not always exact repeats. Equal values may be shown once. Non-standard residues stand in square brackets, D forms with d. Tle = CC(C)(C)[C@H](N)C(=O)O

B1: JBS3202 (peptide)
peptide: Ac-TGL[Tle]SAGWYDYNFDTYREFT-NH2
SMILES: CC(=O)N[C@H](C(=O)NCC(=O)N[C@@H](CC(C)C)C(=O)N[C@H](C(=O)N[C@@H](CO)C(=O)N[C@@H](C)C(=O)NCC(=O)N[C@@H](Cc1c[nH]c2ccccc12)C(=O)N[C@@H](Cc1ccc(O)cc1)C(=O)N[C@@H](CC(=O)O)C(=O)N[C@@H](Cc1ccc(O)cc1)C(=O)N[C@@H](CC(N)=O)C(=O)N[C@@H](Cc1ccccc1)C(=O)N[C@@H](CC(=O)O)C(=O)N[C@H](C(=O)N[C@@H](Cc1ccc(O)cc1)C(=O)N[C@@H](CCCNC(=N)N)C(=O)N[C@@H](CCC(=O)O)C(=O)N[C@@H](Cc1ccccc1)C(=O)N[C@H](C(N)=O)[C@@H](C)O)[C@@H](C)O)C(C)(C)C)[C@@H](C)O

Biological target: T1, human Protein S (UniProt P07225 42-676)
T1 chain: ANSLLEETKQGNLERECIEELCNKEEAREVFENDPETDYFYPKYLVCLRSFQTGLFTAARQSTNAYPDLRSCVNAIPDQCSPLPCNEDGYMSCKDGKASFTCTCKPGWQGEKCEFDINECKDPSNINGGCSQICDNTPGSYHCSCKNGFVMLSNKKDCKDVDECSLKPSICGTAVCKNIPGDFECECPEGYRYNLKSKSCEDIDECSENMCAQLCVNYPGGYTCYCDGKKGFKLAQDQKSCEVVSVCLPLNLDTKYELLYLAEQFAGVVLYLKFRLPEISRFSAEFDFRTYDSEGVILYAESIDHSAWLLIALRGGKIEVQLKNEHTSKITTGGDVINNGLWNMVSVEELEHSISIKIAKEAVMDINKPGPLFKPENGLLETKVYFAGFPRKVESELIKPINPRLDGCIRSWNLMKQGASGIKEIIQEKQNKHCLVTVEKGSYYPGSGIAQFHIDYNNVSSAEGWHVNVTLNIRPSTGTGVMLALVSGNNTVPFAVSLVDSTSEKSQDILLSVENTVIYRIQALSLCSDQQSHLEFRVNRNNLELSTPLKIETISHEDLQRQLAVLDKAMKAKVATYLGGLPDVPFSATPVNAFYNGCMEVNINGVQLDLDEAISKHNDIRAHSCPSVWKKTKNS
Experiment: LANCE competition
Outline: (§1)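 IC50 was derived by non-linear regression of the acceptor emission in a LANCE time-resolved FRET competition assay using europium-labelled Protein S, ULight-labelled streptavidin, a biotinylated tracer peptide and three-fold titrations of unlabelled test peptide. Reactions of 50 µl contained 10 nM Protein S, 100 nM streptavidin and 300 nM tracer at final concentration (2 nM Protein S and 60 nM tracer on a Tecan F500), were kept 1 hour at room temperature, and were read at Ex 340 nm, Em 665 nm.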

Row | Binder | IC50
1 | Ac-DNYVSAGWYDYNTDTYYEFY-NH2 [JBS3297] | 1 nM
2 | Ac-EGYVSAGWYDYNQDIYFEFA-NH2 [JBS3260] | 1.6 nM
3 | Ac-HIYVTAGWYDYNTDTYHEFE-NH2 [JBS3284] | 1.3 nM
4 | Ac-YGIVSAGWYDMNNDYYFEFY-NH2 [JBS3258] | 0.8 nM and 0.9 nM
5 | Ac-YVEVSAGWYDYNTDTYSEFW-NH2 [JBS3281] | 1.7 nM and 2.3 nM
6 | Ac-EYYVSAGWYDYNTDTYYEFT-NH2 [JBS3314] | 0.8 nM

biological target: T2, human Protein S (human, UniProt P07225 42-676); experiment: Biacore and LANCE IC50
T2 construct: Called 'full length Protein S' / 'human full-length Protein S'; It was coated on plates (ELISA), Eu-labeled (LANCE) or immobilized on a chip (Biacore); also called PS; full length Protein S
T2 sequence: T1 chain

Row | Binder | binding result
7 | Ac-ESYVSAGWYDYNTDTYYEFF-NH2 [JBS3223] | binds
8 | Ac-DNYVSAGWYDYNTDTYYEFY-NH2 [JBS3297] | binds
9 | Ac-EYYVTAGWYDYNTDTYYEFE-NH2 [JBS3232] | binds
10 | Ac-EYYVSAGWYDYMTDTYTEFE-NH2 [JBS3235] | binds
11 | Ac-EGYVSAGWYDYNQDIYFEFA-NH2 [JBS3260] | binds
12 | Ac-HIYVTAGWYDYNTDTYHEFE-NH2 [JBS3284] | binds
13 | Ac-YGIVSAGWYDMNNDYYFEFY-NH2 [JBS3258] | binds
14 | Ac-YVEVSAGWYDYNTDTYSEFW-NH2 [JBS3281] | binds
15 | Ac-EYYVEAGWYEYNTDNYYPFE-NH2 [JBS3236] | binds
16 | Ac-EYYVSAGWYDYNTDTYYEFT-NH2 [JBS3314] | binds

Biological target: T1, human Protein S
Experiment: LANCE competition
Remark: another data set of the same source
Outline: as §1

Row | Binder | IC50 [nM]
17 | Ac-ESYVSAGWYDYNTDTYYEFF-NH2 [JBS3223] | 0.7
18 | Ac-TGLVSAGWYDYNNDVYREFT-NH2 [JBS3195] | 2.1
19 | Ac-TGLVEAGWYDYNFDVYREFT-NH2 [JBS3193] | 2.7
20 | Ac-EYYVTAGWYDYNTDTYYEFE-NH2 [JBS3232] | 0.9
21 | Ac-EYYVSAGWYDYMTDTYTEFE-NH2 [JBS3235] | 1.4
22 | Ac-YGLVEAGWYDYNNDTYMEFT-NH2 [JBS3201] | 1.8
23 | Ac-YGLVSAGWYDYNFDHYMEFT-NH2 [JBS3196] | 2.5
24 | Ac-TGLVSAGWYDYNNDTYREFT-NH2 [JBS3194] | 2
25 | Ac-EYYVEAGWYEYNTDNYYPFE-NH2 [JBS3236] | 2.6

biological target: T2, human Protein S; experiment: LANCE TR-FRET competition; Eu-labeled Protein S; competitor tracer JBS0684
Experimental: Peptides also were characterized in a competition, homogenous europium-based TR-FRET assay (LANCE IC50 assay) using JBS0684 as a tracer (i.e., competitor for Protein S binding). The following reagents were mixed together in a Perkin-Elmer ProxiPlate MTP well (indicated concentration is the final concentration): Eu-labeled Protein S (10 nM), Ulight™-labeled Streptavidin (100 nM), tracer (JBS0684 (300 nM)), and peptide (titrated in three-fold dilution steps). The final volume was 50 μl/well. The reaction mix was incubated for 1 hour at room temperature, then the fluorescence emission at 665 nm was recorded on a multi-mode reader (SpectraMax® M5, Molecular Devices) using the following instrument settings: Ex 340 nm, Em 665 nm, delay 50 μsec, integration 100 μsec, reads 100. Binding of tracer peptides to soluble europium-labeled Protein S was detected by Streptavidin labeled with an acceptor fluorophor (ULight™). Inhibition of tracer-binding to Protein S by a non-biotinylated peptide results in a decrease of TR-FRET between the Eu-labeled Protein S and ULight™-labeled Streptavidin. IC50 values were obtained from peptide titration curves at constant tracer concentration using non-linear regression of the fluorescence emission signals at 665 nm.
Several peptides having multiple substitutions in the JBS2572 amino acid sequence were synthesized and evaluated using LANCE IC50 and CAT assays described above. For the assays, pooled normal plasma was supplemented with 3 nM APC and triggered with 6 pM TF, and 15 μM phospholipids (DOPC/POPS 80/20). Stock APC was diluted with TF-PL-MIX to 24 nM (plasma concentration: 3 nM).

Row | Binder | IC50 [nM]
26 | Ac-TGLVSAGWYDYNNDVYREFT-NH2 [JBS3195] | 2
27 | Ac-TGLVEAGWYDYNFDVYREFT-NH2 [JBS3193] | 2.5
28 | B1 | 1.6
29 | Ac-TGL[Tle]SAGWYDYNFDHYMEFT-NH2 [JBS3203] | 1.8
30 | Ac-YGLVEAGWYDYNNDTYMEFT-NH2 [JBS3201] | 1.9
31 | Ac-YGLVSAGWYDYNFDHYMEFT-NH2 [JBS3196] | 2.2
32 | Ac-TGLVSAGWYDYNNDTYREFT-NH2 [JBS3194] | 1.8

biological target: T2, human Protein S; experiment: cell-based or functional assay

Row | Binder | CAT EC50 [nM]
33 | Ac-TGLVSAGWYDYNNDVYREFT-NH2 [JBS3195] | 139
34 | Ac-TGLVEAGWYDYNFDVYREFT-NH2 [JBS3193] | 116
35 | B1 | 129
36 | Ac-TGL[Tle]SAGWYDYNFDHYMEFT-NH2 [JBS3203] | 127
37 | Ac-YGLVEAGWYDYNNDTYMEFT-NH2 [JBS3201] | 127
38 | Ac-YGLVSAGWYDYNFDHYMEFT-NH2 [JBS3196] | 155
39 | Ac-TGLVSAGWYDYNNDTYREFT-NH2 [JBS3194] | 122
